# Laboratory results reported in patent CN101248088A (LILLY CO ELI, dated 2008).
# T1: 人IL-23 (human IL-23, p19/p40 heterodimer) (human, UniProt P29460 23-328)
# T1 construct: Bought human IL-23 (R&D Systems); also called hIL-23; 成熟IL-23
# T1 sequence 1: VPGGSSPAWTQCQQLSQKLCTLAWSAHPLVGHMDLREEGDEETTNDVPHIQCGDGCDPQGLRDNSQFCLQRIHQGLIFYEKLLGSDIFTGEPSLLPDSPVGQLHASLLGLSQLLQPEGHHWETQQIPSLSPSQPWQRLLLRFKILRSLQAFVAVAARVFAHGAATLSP
# T1 sequence 2: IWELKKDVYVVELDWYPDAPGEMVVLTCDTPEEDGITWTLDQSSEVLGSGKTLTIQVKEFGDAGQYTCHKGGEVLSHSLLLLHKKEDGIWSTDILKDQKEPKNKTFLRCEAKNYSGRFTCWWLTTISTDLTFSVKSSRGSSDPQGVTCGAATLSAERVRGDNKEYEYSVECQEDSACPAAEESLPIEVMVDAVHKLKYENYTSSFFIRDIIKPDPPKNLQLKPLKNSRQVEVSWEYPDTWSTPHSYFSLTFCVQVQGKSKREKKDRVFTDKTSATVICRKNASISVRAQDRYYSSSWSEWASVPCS
# Assays:
# [1] = biological target: 人IL-23 (human IL-23, p19/p40 heterodimer) (human) (UniProt P29460); experiment: cell-based or functional assay
# [2] = biological target: 人IL-23 (human IL-23, p19/p40 heterodimer) (human) (UniProt P29460); experiment: SPR (BIAcore), antibody captured on protein A CM5 chip, human IL-23 in flow, HBS-EP pH 7.4, 25 °C
# [3] = biological target: T1, 人IL-23 (human IL-23, p19/p40 …); experiment: SPR (BIAcore)
# [4] = biological target: T1, 人IL-23 (human IL-23, p19/p40 …); experiment: cell-based or functional assay
Molecule,"IC50, 小鼠脾细胞测定法 (IL-23-stimulated IL-17 secretion of mouse splenocytes) [1]",Kd [2],koff [2],kon [2],Kd [3],"IC50, 小鼠脾细胞测定法 [4]","IC50, 小鼠脾细胞测定法 (IL-23-stimulated IL-17 secretion of mouse splenocytes) [4]"
"MAB1290 (小鼠抗人IL-23单克隆抗体, 安迪生物科技 R&D Systems) (antibody)",2800 pM,21.4 nM,0.000768 s⁻¹,36800 M⁻¹ s⁻¹,,,
"MAbQF20 (antibody, V domains shown, Humanised antibody) VH: QVQLVQSGAEVKKPGASVKVSCKVSGKTFWSYGINWVRQAPGKGLEWMGYIYIGTGYTEPNPKYKGRVTMTEDTSTDTAYMELSSLRSEDTAVYYCATIGGYYGNFADWGQGTTVTVSS VL: DVVMTQSPLSLPVTLGQPASISCRSSQSLLISGGKTYLNWFQQRPGQSPRRLIYLVSKLDQGVPDRFSGSGSGTDFTLKISRVEAEDVGVYYCWQGTYFPLTFGQGTKLEIK",,,,,< 0.16 nM,< 20 pM,2 pM
"MAbQF37 (antibody, V domains shown, Humanised antibody) VH: QVQLVQSGAEVKKPGASVKVSCKVSGKTFWSYGINWVRQAPGKGLEWMGYIYIGTGYTEPNPKYKGRVTMTEDTSTDTAYMELSSLRSEDTAVYYCATIGGYYGNFDQWGQGTTVTVSS VL: DVVMTQSPLSLPVTLGQPASISCRSSQSLLISGGKTYLNWFQQRPGQSPRRLIYLVSKLDQGVPDRFSGSGSGTDFTLKISRVEAEDVGVYYCWQGTYFPLTFGQGTKLEIK",,,,,< 0.16 nM,< 20 pM,2 pM
